Measurements: US20040141964A1 (GlaxoSmithKline, published 2004)

T1: human IL-18 (human, UniProt Q14116 37-193)
T1 construct: Injected in solution over captured mAb in the BIAcore assays; also called human interleukin-18; recombinant IL-18
T1 sequence (looked up): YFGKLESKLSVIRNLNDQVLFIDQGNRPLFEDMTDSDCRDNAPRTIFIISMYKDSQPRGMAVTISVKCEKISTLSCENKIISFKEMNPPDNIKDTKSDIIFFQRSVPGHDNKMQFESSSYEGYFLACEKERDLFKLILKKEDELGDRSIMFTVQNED


Key:
human IL-18 [1] = target: T1, human IL-18; assay: BIAcore optical biosensor, 25 C; mAb captured on anti-rat IgG Fc surface, IL-18 injected
Procedure: (§1) Kinetic data was evaluated using relationships described previously (Karlsson et al, J. Immunol. Meth., 145:229-240 (1991) and which is incorporated by reference in its entirely. The mAb (diluted in HBS buffer, 10 mM HEPES, 150 mM NaCl, 0.01% Tween-20. pH 7.4) was injected over a rabbit anti-mouse IgG Fc or goat anti-rat IgG Fc surface, followed by buffer flow and the RU was recorded. IL-18 (diluted in HBS buffer) was then injected for 180 seconds followed by a buffer flow for 500 seconds and the RU was recorded. The sensor chip surface was regenerated by an injection of 0.1 M phosphoric acid.

human IL-18 [2] = target: T1, human IL-18; assay: cell-based or functional assay
human IL-18 [3] = target: T1, human IL-18; assay: BIAcore optical biosensor, 25 C; mAb captured on anti-mouse IgG Fc surface, IL-18 injected
Procedure: as §1

| Binder | Kd (human IL-18 [1]) [nM] | Neutralisation IC50 (human IL-18 [2]) [nM] | Kd (human IL-18 [3]) [nM] |
| --- | --- | --- | --- |
| rat monoclonal antibody 2C10 (antibody, IgG1, V domains shown, Mab purified from a rat hybridoma, isotype IgG1 kappa; also called mAb 2C10; 2C10 (rat)) VH: EVQLQQSGAELVRPGTSVKLSCKVSGEISTGYYFHFVRRRPGQGLEWIGRIDPEDDSTKYAERFKDRATLTAQTSSNTAYLNLSSLTSEDTATYFCTTWRIYRDSSGRPFYVMDAWGQGASVTVSS VL: DIQMTQSPASLSASLGETVSIECLASEDIYTYLTWYQQKPGKSPQLLIYGANKLQDGVPSRFSGSGSGTQYSLKISGIQPEDEGDYFCLQGSKFPLTFGSGTKLEIKR | 0.039 | 0.1 | – |
| rat monoclonal antibody 14B7 (antibody, IgG1, V domains shown, Mab purified from a rat hybridoma, isotype IgG1 kappa; also called mAb 14B7; 14B7 (rat)) VH: EVQLQQSGAELVRPGTSVKFSCKVSGDTPTTYYVHFVRQRPGQGLEWIGRIDPEDTSTKYAEKFRNKATFTADPSSNTAYLNLSSLTPEDTATYFCTIMRYHSTYRVYVMDFWGQGTAVTVS VL: DIQMTQSPASLSASLGETVSIECLASEDIYSYLAWYQQKPGKSPQLLIYATKRLQDGVPSRFSGSGSGTQYSLKISDMQPEDEGDYFCLQNSKFPVTFGSGTKLEIKR | 0.15 | 0.2 | – |
| murine monoclonal antibody 13G9 (antibody, IgG1, V domains shown, Mab purified from a mouse hybridoma, isotype IgG1 kappa; also called mAb 13G9; 13G9 (mouse)) VH: QVTLKESGPGILKPSQTLSLTCSFSGFSLSTSGMGIAWVRQPSGKGLEWLADIWWDDNKYYNPSLESQLTISKDTSRNQVFLTITSVDTADSATYYCARHHYDGSSLLPMDYWGQGTSVTVSS VL: DVVMTQTPLSLPVSLGDQASISCRSSQSLVHSNGNTYLHWYLQKPGQSPKLLIYKVSNRFSGVPDRFSGSGSGTDFTLKISRVEAEDLGVYFCSQSTHVPPYTFGGGTKLEIKR | – | 3 | 12 |
